Experimental data as given in patent US11542480B2.

What was measured:
[1] = substrate: NCC(=O)O; test: purified protein, by the assay type; assay type: biochemical, Geobacillus kaustophilus HTA426; settings: other: substrate glycine, 37° C., pyrophosphate, pH 8.5, WT-GOX, 60.0 °C
From the text: HTA426 is available, for example, from the National Research and Development Agency, RIKEN BioResource Research Center (RIKEN BRC) Microbe Division (JCM) (JCM12893).
However, a plasmid vector of pET-15b was used as a vector, and E. coli BL21 (DE3) was used as a host cell (host).
For convenience of explanation, the wild-type glycine oxidase is abbreviated as “WT-GOX”.

[2] = substrate: NCC(=O)O; test: purified protein, by the assay type; assay type: biochemical, Geobacillus kaustophilus HTA426; settings: other: substrate glycine, 37° C., pyrophosphate, pH 8.5, purified V-GOX1, 70.0 °C
Procedure: For convenience of explanation, the mutant glycine oxidase is abbreviated as “V-GOX” in this example.
The enzyme activity in Table 2 is shown as the ratio (times) of the enzyme reaction rate (use of crude enzyme solution) of V-GOX when WT-GOX is used as reference (1).
Therefore, after purifying this V-GOX1, the molecular weight (SDS-PAGE), the optimum temperature, the optimum pH, thermal stability, pH stability, the specific activity, and the kinetic constant Km were evaluated. The results of the specific activity, thermal stability, and the kinetic constant Km are shown in Table 1 above, the specific activity is shown in FIG. 3A, and thermal stability is shown in FIG. 3B, and further, evaluation results of enzyme properties of V-GOX1 containing them are also shown in Table 3 together with the conditions.

B1: Geobacillus kaustophilus HTA426 wild-type glycine oxidase (WT-GOX), SEQ ID NO: 1 (Geobacillus kaustophilus HTA426) (protein)
chain: MTHRYDVAIVGGGVIGAAIGFELAKRRHRVAIFEKGTMGSGASSAAAGMLGAQSEFSTSSPLVPLALQSRALMPALAEELRERTGIDIGLVEKGLIKLATTEEEADDLYRHYTFWRGIGEPVQWLTKGEALEMEPRLAAEALAGAMYIPGDGQVSAPDLAAALAYAAASAGACLYEYTEVFDIRSDSSGHVLDTTGGTFAAEAVVIASGAWAARLGARVGLSLSVYPVKGECVMVRAPVPLLQTTVFAKNGCYIVPKSGNRLLIGATSTPGTFDRRVSAGGVMNLLHRAAHLVPDIEQAEWVASWSGIRPQTEDGLPYLGEHPERRGLFVAAGHYRNGILLSPLTGLLVADLVERKETAFDLAPFSLTRHIGKVGVE
Q: How did the Km [1] turn out when B1 was run?
A: 0.25 mM mM

B2: Geobacillus kaustophilus HTA426 glycine oxidase variant V-GOX1, 251st glycine of SEQ ID NO: 1 substituted with glutamine (Gly251Gln; SEQ ID NO: 3 with Xaa251 = … (protein)
chain: MTHRYDVAIVGGGVIGAAIGFELAKRRHRVAIFEKGTMGSGASSAAAGMLGAQSEFSTSSPLVPLALQSRALMPALAEELRERTGIDIGLVEKGLIKLATTEEEADDLYRHYTFWRGIGEPVQWLTKGEALEMEPRLAAEALAGAMYIPGDGQVSAPDLAAALAYAAASAGACLYEYTEVFDIRSDSSGHVLDTTGGTFAAEAVVIASGAWAARLGARVGLSLSVYPVKGECVMVRAPVPLLQTTVFAKNQCYIVPKSGNRLLIGATSTPGTFDRRVSAGGVMNLLHRAAHLVPDIEQAEWVASWSGIRPQTEDGLPYLGEHPERRGLFVAAGHYRNGILLSPLTGLLVADLVERKETAFDLAPFSLTRHIGKVGVE
Q: Which Km [2] does the source give for B2 here?
A: 0.20 mM mM
